Results published in paper PMC13397619.

B1: NLV3 TCR beta chain (CDR3β only) (parent)
chain: ASSPTGGSPSPLH

Variants of: B1
Assay: T-Switch: Jurkat TCRβ−/− cells expressing a CDR3 saturation-mutagenesis library, stained with two peptide-HLA-A*02:01 tetramers (original and novel peptide) plus anti-CD3, FACS-sorted into four gates, gDNA sequenced
Conditions: with both tetramers (double-negative gate, binds neither): HLA-A*02:01 with … and with …, tetramers 1 µg/mL, 30 min on ice, SP, DP and SW gates expanded about 10 days between rounds ('two to three rounds of selection' in the Methods), gate DN: OPPOSITE: higher = more of the variant in the gate that binds neither peptide = LESS binding (or no expression; inferred). Fold enrichment of the CDR3 variant in one FACS gate of a two-tetram, unresolved parent, parent is a CDR3 fragment, scale: fold enrichment, numbering: sequential-on-construct, sequence starts at 1

Variant	enrichment
[…] (CDR3 as printed); S2K derived by comparing it with the table's wild-type CDR3 ASSPTGGSPSPLH	0.571
[…] (CDR3 as printed); S8P derived by comparing it with the table's wild-type CDR3 ASSPTGGSPSPLH	1.03
[…] (CDR3 as printed); S3L derived by comparing it with the table's wild-type CDR3 ASSPTGGSPSPLH	0.942
[…] (CDR3 as printed); S10K derived by comparing it with the table's wild-type CDR3 ASSPTGGSPSPLH	1.05
[…] (CDR3 as printed); P9K derived by comparing it with the table's wild-type CDR3 ASSPTGGSPSPLH	0.805
[…] (CDR3 as printed); P9W derived by comparing it with the table's wild-type CDR3 ASSPTGGSPSPLH	1.05
[…] (CDR3 as printed); P11N derived by comparing it with the table's wild-type CDR3 ASSPTGGSPSPLH	1.51
[…] (CDR3 as printed); T5Q derived by comparing it with the table's wild-type CDR3 ASSPTGGSPSPLH	1.16
[…] (CDR3 as printed); S3F derived by comparing it with the table's wild-type CDR3 ASSPTGGSPSPLH	0.989
[…] (CDR3 as printed); S2G derived by comparing it with the table's wild-type CDR3 ASSPTGGSPSPLH	0.981
[…] (CDR3 as printed); P11H derived by comparing it with the table's wild-type CDR3 ASSPTGGSPSPLH	1.37
[…] (CDR3 as printed); P9L derived by comparing it with the table's wild-type CDR3 ASSPTGGSPSPLH	1.2
[…] (CDR3 as printed); T5L derived by comparing it with the table's wild-type CDR3 ASSPTGGSPSPLH	0.514
[…] (CDR3 as printed); S2F derived by comparing it with the table's wild-type CDR3 ASSPTGGSPSPLH	0.437
[…] (CDR3 as printed); S8V derived by comparing it with the table's wild-type CDR3 ASSPTGGSPSPLH	0.756
[…] (CDR3 as printed); P11W derived by comparing it with the table's wild-type CDR3 ASSPTGGSPSPLH	0.701
[…] (CDR3 as printed); S8Q derived by comparing it with the table's wild-type CDR3 ASSPTGGSPSPLH	0.893
[…] (CDR3 as printed); S10H derived by comparing it with the table's wild-type CDR3 ASSPTGGSPSPLH	0.949
[…] (CDR3 as printed); P9S derived by comparing it with the table's wild-type CDR3 ASSPTGGSPSPLH	0.771
[…] (CDR3 as printed); T5R derived by comparing it with the table's wild-type CDR3 ASSPTGGSPSPLH	1.07
[…] (CDR3 as printed); T5S derived by comparing it with the table's wild-type CDR3 ASSPTGGSPSPLH	0.633
[…] (CDR3 as printed); P11V derived by comparing it with the table's wild-type CDR3 ASSPTGGSPSPLH	1.05
[…] (CDR3 as printed); T5I derived by comparing it with the table's wild-type CDR3 ASSPTGGSPSPLH	0.355
[…] (CDR3 as printed); S2E derived by comparing it with the table's wild-type CDR3 ASSPTGGSPSPLH	0.993
[…] (CDR3 as printed); S10I derived by comparing it with the table's wild-type CDR3 ASSPTGGSPSPLH	0.982

Same assay, conditions: with both tetramers (double-positive gate): HLA-A*02:01 with … and with …, tetramers 1 µg/mL, 30 min on ice, SP, DP and SW gates expanded about 10 days between rounds ('two to three rounds of selection' in the Methods), gate DP: higher = more of the variant in the gate that binds both peptides. Fold enrichment of the CDR3 variant in one FACS gate of a two-tetramer stain. SP/DP/SW gates were expanded and re-sorted bef, unresolved parent, parent is a CDR3 fragment, scale: fold enrichment, numbering: sequential-on-construct, sequence starts at 1

Variant	enrichment
[…] (CDR3 as printed); S2K derived by comparing it with the table's wild-type CDR3 ASSPTGGSPSPLH	0
[…] (CDR3 as printed); S8P derived by comparing it with the table's wild-type CDR3 ASSPTGGSPSPLH	0
[…] (CDR3 as printed); S3L derived by comparing it with the table's wild-type CDR3 ASSPTGGSPSPLH	0
[…] (CDR3 as printed); S10K derived by comparing it with the table's wild-type CDR3 ASSPTGGSPSPLH	0
[…] (CDR3 as printed); P9K derived by comparing it with the table's wild-type CDR3 ASSPTGGSPSPLH	0
[…] (CDR3 as printed); P9W derived by comparing it with the table's wild-type CDR3 ASSPTGGSPSPLH	0
[…] (CDR3 as printed); P11N derived by comparing it with the table's wild-type CDR3 ASSPTGGSPSPLH	0
[…] (CDR3 as printed); T5Q derived by comparing it with the table's wild-type CDR3 ASSPTGGSPSPLH	0
[…] (CDR3 as printed); S3F derived by comparing it with the table's wild-type CDR3 ASSPTGGSPSPLH	0
[…] (CDR3 as printed); S2G derived by comparing it with the table's wild-type CDR3 ASSPTGGSPSPLH	0
[…] (CDR3 as printed); P11H derived by comparing it with the table's wild-type CDR3 ASSPTGGSPSPLH	0
[…] (CDR3 as printed); P9L derived by comparing it with the table's wild-type CDR3 ASSPTGGSPSPLH	0
[…] (CDR3 as printed); T5L derived by comparing it with the table's wild-type CDR3 ASSPTGGSPSPLH	0
[…] (CDR3 as printed); S2F derived by comparing it with the table's wild-type CDR3 ASSPTGGSPSPLH	0
[…] (CDR3 as printed); S8V derived by comparing it with the table's wild-type CDR3 ASSPTGGSPSPLH	0
[…] (CDR3 as printed); P11W derived by comparing it with the table's wild-type CDR3 ASSPTGGSPSPLH	0
[…] (CDR3 as printed); S8Q derived by comparing it with the table's wild-type CDR3 ASSPTGGSPSPLH	0
[…] (CDR3 as printed); S10H derived by comparing it with the table's wild-type CDR3 ASSPTGGSPSPLH	0
[…] (CDR3 as printed); P9S derived by comparing it with the table's wild-type CDR3 ASSPTGGSPSPLH	0
[…] (CDR3 as printed); T5R derived by comparing it with the table's wild-type CDR3 ASSPTGGSPSPLH	0
[…] (CDR3 as printed); T5S derived by comparing it with the table's wild-type CDR3 ASSPTGGSPSPLH	0
[…] (CDR3 as printed); P11V derived by comparing it with the table's wild-type CDR3 ASSPTGGSPSPLH	0
[…] (CDR3 as printed); T5I derived by comparing it with the table's wild-type CDR3 ASSPTGGSPSPLH	0
[…] (CDR3 as printed); S2E derived by comparing it with the table's wild-type CDR3 ASSPTGGSPSPLH	0
[…] (CDR3 as printed); S10I derived by comparing it with the table's wild-type CDR3 ASSPTGGSPSPLH	0
